Assay [1] deals with HLA-A*02:01. Put plainly: IEDB peptide-MHC binding, purified MHC/competitive/radioactivity; ≥ and ≤ were set here for values at or beyond the usual limits of such assays.
The target of assay [2] is HLA-A*68:02. The description is as above.
Assay [3] has as its target HLA-A*02:06. The description is as above.
In assay [4] the target is HLA-A*02:03. Described as above.
Assay [5] deals with HLA-A*02:02. Put plainly: IEDB peptide-MHC binding, cellular MHC/competitive/fluorescence; ≥ and ≤ were set here for values at or beyond the usual limits of such assays.
Assay [6] addresses HLA-A*02:01. The assay is described as above.
In assay [7] the target is HLA-A*02:02. Put plainly: IEDB peptide-MHC binding, purified MHC/competitive/radioactivity; ≥ and ≤ were set here for values at or beyond the usual limits of such assays.
Assay [8] addresses HLA-A*68:02. In words: IEDB peptide-MHC binding, cellular MHC/competitive/fluorescence; ≥ and ≤ were set here for values at or beyond the usual limits of such assays.
For assay [9], the target named is HLA-A*02:06. Described as above.
Setting [10] is: source organism: Vaccinia virus WR.
[11] abbreviates: source organism: Influenza A virus.
Where [12] appears, read: source organism: Mammarenavirus guanaritoense.

A word on the IC50: it is the concentration at which inhibition is half-maximal. In the case of EISSNDNAKI, the concentration for half-maximal inhibition (IC50) in assay [1] (setting [10]) is 0.508 µM; in [2] (setting [10]), 0.122 µM; in assay [3] (setting [10]) it was 0.162 µM; in assay [4] (setting [10]), 0.194 µM; in assay [5] (setting [10]) it was 11.2 µM.
The like results for DINVIGLIVI were, in that order, 1.35 µM, 2.19 µM, 2.79 µM, 2.81 µM and 7.15 µM.
For the sequence NVTYNIKPV, the half-inhibitory concentration (IC50) in assay [2] (setting [10]) worked out at 0.376 µM; in assay [3] (setting [10]), 0.855 µM; in assay [4] (setting [10]), 0.153 µM; in assay [6] (setting [10]) it was 6.36 µM; in assay [5] (setting [10]), 22.8 µM.
For the sequence TISWMMKLGI, the IC50 stood at 4.57 µM in assay [1] (setting [10]); 1.48 µM in assay [2] (setting [10]); 2.78 µM in assay [3] (setting [10]); 0.972 µM in assay [4] (setting [10]); 7.84 µM in assay [5] (setting [10]).
As for YASLTTIGTI, the IC50 in [2] (setting [10]) was 0.133 µM; in [3] (setting [10]) it was 0.084 µM; in assay [4] (setting [10]) it was 0.398 µM; in assay [6] (setting [10]), 8.42 µM; in assay [5] (setting [10]), 6.29 µM.
For the sequence CVNGSCFTV, the IC50 was found to be 3.95 µM in [1] (setting [11]); 3.25 µM in assay [2] (setting [11]); 1.99 µM in [3] (setting [11]); 1.13 µM in [4] (setting [11]); 12.4 µM in assay [5] (setting [11]).
On to SASDMQKFTI, for which the IC50 in assay [2] (setting [10]) worked out at 0.487 µM; in [3] (setting [10]), 4.25 µM; in assay [4] (setting [10]), 1.22 µM; in assay [6] (setting [10]) it was 13.5 µM; in [5] (setting [10]) it was 10.8 µM.
With STFNMWREI, the IC50 in [2] (setting [10]) stood at 0.02 µM; in assay [3] (setting [10]), 0.095 µM; in [4] (setting [10]), 0.713 µM; in assay [6] (setting [10]), 5.67 µM; in assay [5] (setting [10]), 5.82 µM.
On the same counts, the results for GVPHSVFIA are 2.99 µM, 0.101 µM, 3.63 µM, 5.35 µM and 5.37 µM.
The like results for DLTALLSCI were, in that order, 1.78 µM, 4.88 µM, 0.996 µM, 13.5 µM and 5.2 µM.
The like results for RTIDAINKCV were, in that order, 0.289 µM, 0.341 µM, 0.334 µM, 25 µM and 10.8 µM.
For EVIERINLLV, the IC50 in assay [1] (setting [10]) was 2.69 µM; in [2] (setting [10]) it was 0.02 µM; in assay [3] (setting [10]), 0.3 µM; in [4] (setting [10]) it was 3.33 µM; in assay [5] (setting [10]) it was 19.7 µM.
The like results for IVCSKTVKNV were, in that order, 1.42 µM, 1.73 µM, 2.76 µM, 0.503 µM and 10.8 µM.
On the same counts, the results for GIKGLDERFV are 4.39 µM, 0.492 µM, 0.94 µM, 0.844 µM and 6.19 µM.
Take HINDQKFDDV: the IC50 in [2] (setting [10]) was 1.12 µM; in [3] (setting [10]), 1.19 µM; in [4] (setting [10]) it was 1.16 µM; in assay [6] (setting [10]), 13.2 µM; in assay [5] (setting [10]) it was 5.86 µM.
Regarding DISDVKVLAA, the IC50 in assay [2] (setting [10]) is 4.98 µM; in assay [3] (setting [10]), 4.61 µM; in assay [4] (setting [10]), 2.2 µM; in assay [6] (setting [10]) it was at least 70 µM; in assay [5] (setting [10]), 33.8 µM.
For ITPTIEDDKI, the IC50 in assay [2] (setting [10]) is 2.19 µM; in assay [3] (setting [10]) it was 1.5 µM; in [4] (setting [10]), 4.2 µM; in [6] (setting [10]), 18.8 µM; in [5] (setting [10]) it was 18.7 µM.
As to NIYRLFTRCA, the IC50 in assay [1] (setting [10]) was 0.81 µM; in assay [2] (setting [10]), 0.25 µM; in assay [3] (setting [10]), 0.023 µM; in assay [4] (setting [10]), 0.138 µM; in assay [5] (setting [10]), 9.89 µM.
With ITRLEVIGL, the IC50 in [1] (setting [10]) was determined as 3.66 µM; in [2] (setting [10]), 4.46 µM; in assay [3] (setting [10]), 0.776 µM; in assay [4] (setting [10]), 0.213 µM; in assay [5] (setting [10]) it was 5.51 µM.
With HTNHSDISM, the IC50 in assay [2] (setting [10]) stood at 0.026 µM; in assay [3] (setting [10]), 1.2 µM; in assay [4] (setting [10]), 4.14 µM; in assay [6] (setting [10]), 12.1 µM; in assay [5] (setting [10]), 8.81 µM.
In the case of AVIIMAINV, the IC50 in [1] (setting [10]) was found to be 0.963 µM; in assay [2] (setting [10]) it was 1.24 µM; in assay [3] (setting [10]), 0.065 µM; in [4] (setting [10]), 2.76 µM; in [5] (setting [10]), 9.07 µM.
For FTDCRTIDA, the half-maximal inhibitory concentration (IC50) came out at 3.77 µM in assay [1] (setting [10]); 3.42 µM in [2] (setting [10]); 2.71 µM in assay [3] (setting [10]); 2.68 µM in assay [4] (setting [10]); 10.9 µM in assay [5] (setting [10]).
Consider AAFEDLRLL, for which the IC50 was found to be 4.45 µM in assay [7] (setting [11]); 1.47 µM in [4] (setting [11]); 15.5 µM in assay [6] (setting [11]); 18.1 µM in [8] (setting [11]); 6.19 µM in [9] (setting [11]).
With AIRAGYSIV, the IC50 in assay [7] (setting [10]) was found to be 1.2 µM; in assay [4] (setting [10]) it was 0.00021 µM; in [6] (setting [10]), 5.01 µM; in [8] (setting [10]) it was 15.4 µM; in assay [9] (setting [10]), 8.06 µM.
As for FMNDLQVSR, the IC50 in assay [7] (setting [12]) was determined as 0.249 µM; in assay [4] (setting [12]) it was 0.915 µM; in [6] (setting [12]), 6.25 µM; in [8] (setting [12]), 26.3 µM; in assay [9] (setting [12]), 33.6 µM.
Consider NTFVNFNSV, for which the IC50 worked out at 0.0058 µM in assay [2] (setting [10]), 0.00035 µM in assay [3] (setting [10]), 0.1 µM in assay [4] (setting [10]) and 5.02 µM in assay [5] (setting [10]).
Regarding KLVETGFVI, the IC50 in [2] (setting [10]) was 1.05 µM; in assay [3] (setting [10]), 0.2 µM; in assay [4] (setting [10]) it was 1.07 µM; in assay [6] (setting [10]) it was 14.3 µM; in assay [5] (setting [10]), 13.2 µM.
On to EIDVSEVKTL, for which the IC50 in assay [7] (setting [10]) is 4.95 µM; in assay [4] (setting [10]), 2.24 µM; in assay [6] (setting [10]), at least 70 µM; in assay [8] (setting [10]), 8.12 µM; in assay [9] (setting [10]), 56.1 µM.
On the same counts, the results for GLCNYGGILI are 0.152 µM, 3.21 µM, 24.2 µM, 35.2 µM and 5.03 µM.
Take ALKNSQAELT: the IC50 in assay [7] (setting [10]) is 2.12 µM; in assay [4] (setting [10]) it was 0.98 µM; in assay [6] (setting [10]) it was 51 µM; in [8] (setting [10]), 47.4 µM; in assay [9] (setting [10]) it was 27.2 µM.
Consider SAFDERRNKYL, for which the IC50 in [7] (setting [11]) was 1.09 µM; in [4] (setting [11]), 2.48 µM; in assay [6] (setting [11]) it was 24.3 µM; in [8] (setting [11]), 14.1 µM; in assay [9] (setting [11]), at least 70 µM.
With AMHDKKIDIL, the IC50 in [7] (setting [10]) is 0.387 µM; in [4] (setting [10]), 1.18 µM; in [6] (setting [10]) it was 8.94 µM; in [8] (setting [10]), at least 70 µM; in assay [9] (setting [10]) it was at least 70 µM.
Regarding LVDKEDTDIV, the IC50 was 3.7 µM in assay [7] (setting [10]); 1.68 µM in assay [4] (setting [10]); at least 70 µM in [6] (setting [10]); 56.8 µM in assay [8] (setting [10]); 27.2 µM in [9] (setting [10]).
Take DTIAHINTLI: the IC50 in [7] (setting [10]) is 1.16 µM; in [4] (setting [10]), 0.114 µM; in assay [6] (setting [10]), 10.3 µM; in assay [8] (setting [10]) it was at least 70 µM; in [9] (setting [10]), 62.7 µM.
The like results for SVGTGILFM were, in that order, 1.09 µM, 2.25 µM, 5.15 µM, 57.4 µM and 20.7 µM.
The like results for KQNKFGDSPL were, in that order, 0.09 µM, 0.216 µM, 5.55 µM, 31.6 µM and 5.08 µM.
As to LIKTLSPAHL, the IC50 was 1.85 µM in [7] (setting [10]); 0.356 µM in assay [4] (setting [10]); 11.6 µM in [6] (setting [10]); 33.3 µM in [8] (setting [10]); 10.2 µM in assay [9] (setting [10]).
Regarding ITFLRPVLKA, the IC50 was 3.16 µM in assay [7] (setting [10]); 0.718 µM in assay [4] (setting [10]); at least 70 µM in [6] (setting [10]); 21.4 µM in [8] (setting [10]); 18 µM in assay [9] (setting [10]).
As to LITNTKSDNI, the IC50 in assay [7] (setting [10]) was 2.25 µM; in assay [4] (setting [10]), 3.08 µM; in [6] (setting [10]), at least 70 µM; in assay [8] (setting [10]), 20.7 µM; in assay [9] (setting [10]) it was 18.8 µM.
YLVQQESSFV: the IC50 in [1] (source organism: SARS-CoV1) was 0.076 µM; in [2] (source organism: SARS-CoV1), 3.41 µM; in [3] (source organism: SARS-CoV1) it was 0.386 µM; in assay [4] (source organism: SARS-CoV1), 0.017 µM; in assay [5] (source organism: SARS-CoV1), 12.7 µM.
Regarding VADLSARNKL, the IC50 in assay [7] (setting [10]) amounted to 1.17 µM; in [4] (setting [10]), 2.16 µM; in [6] (setting [10]), 23 µM; in assay [8] (setting [10]), 7.04 µM; in assay [9] (setting [10]) it was 35.9 µM.
As to IVAAVIIMA, the IC50 turned out to be 1.81 µM in [1] (setting [10]); 0.024 µM in assay [2] (setting [10]); 3.57 µM in assay [3] (setting [10]); 2.66 µM in [4] (setting [10]); 10.4 µM in assay [5] (setting [10]).
Turning to LATLNTLIT, the IC50 in assay [7] (setting [10]) amounted to 1.16 µM; in assay [4] (setting [10]) it was 1.55 µM; in assay [6] (setting [10]) it was 10.6 µM; in [8] (setting [10]) it was 13.9 µM; in [9] (setting [10]), 14.2 µM.
The like results for GIKNLKSLL were, in that order, 2.14 µM, 2.62 µM, 54.5 µM, at least 70 µM and 61.7 µM.
For the sequence NMKPNFWSRI, the IC50 in assay [7] (setting [10]) was 1.68 µM; in assay [4] (setting [10]) it was 0.193 µM; in [6] (setting [10]), 23.4 µM; in assay [8] (setting [10]) it was 13.1 µM; in [9] (setting [10]), 13.9 µM.

(Values after the Immune Epitope Database (IEDB).)
